According to the DeepSol protein solubility set:

Experiment: soluble on expression in E. coli; label from the status in PepcDB or PDB records

| Sequence | soluble on expression in E. coli |
| --- | --- |
| DIQMTQSPSSLSASVGDRVTITCQASQDITNHLNWYQQKPGKAPKLLIYDASNLETGVPSRFSGRGSGTHFTFTISSLQPADIATYYCQEYDYLPQTFGGGTKVEIK | soluble |
| MGHHHHHHSHMKVGKNNFRPPPKVESSVVRIEPKNPPPPINFQEWDGLVRITFVRKNKTLSAAFKSSAVQQLLEKNYRIHCSVHNIIIPEDFSIADKIQQILTSTGFSDKRARSMDIDDFIRLLHGFNAEGIHFS | not soluble |
| MTKRGPDDLQLSLRNGVGGASTTAPGVAAAAYYANVMTADSEPKKAKLDPTLYSSQFYTPAMHHGLMTADASTVAAVTAAANATTAQLLTGNPITQIQGIQLSTLPQCNSTSAVTSIPVSKVVHVRNIPPDLVDVELMQLCIQYGPVSNYMMLKGKSQAFVEYEEEASAAAFVSGMTAVPIQIRGRTLFAQYSTHRELKFDKNKAISDTESVANGSVSNFEVGTQQQPNSVLRTIIENMMFPVSLDVLYQLFTRYGKVLRIITFNKNNTFQALVQMSEANSAQLAKQGLENQNVYNGCCTLRIDYSKLSTLNVKYNNDKSRDYTNPNLPAGEMTLEQTIAMSIPGLQNLIPANPYNFAFGANPATTFLTTQLAASTAAAAAVNDSANAAALAPYLNPLGLTSANLAPSISSMRFPMINLTPVILVSNLHEMKVTTDALFTLFGVYGDVMRVKILYNKKDNALIQYSEPQQAQLALTHLDKVKWHDRLIRVAPSKHTNVQMPKEGQPDAGLTRDYAHSTLHRFKKPGSKNYLNIYPPCATLHLSNIPTSVSEEKLKEMFAEAGFAVKAFKFFPKDHKMALCQLEDIETAIDALIAMHNHKLAENAHLRVSFSKSGI | not soluble |
| MPVAIVTGASSGIGRAAALLLARNNYKLSLTGRNVAALNELAGQIVSAGSDKNDVLVTAVELASEEAPKTIVDATVQKFGRIDTLINSAGILRAGPVLDSGIEVYDELMNVNVRSLIRLTRAALPHIITTKGTVVNVSSINGPCPFPNVTYYCMSKSAVDQFTKCLALEMAPNGVRVNAVCPGVTVTNLHRTSGQDETTYSAFLERSKTTHALGRPGDANEVAEAIYFLASEKSSFTTGELLRVDGGRGIMHPR | soluble |
| MSLDGPVVFICGKCKLPVGDSLSWDGSEDEQNQIRLKRVTDNVYVGKENRMYEVGKRSLCLIVDLLCQGCHSVLGMVYASTPKNMDHKRFTFCLNVADIDSYVLGSASQSLAAGGAGEQPVTLEYRSQVEEQLSQMKMLVMSMALKLEEIEIGRREGYEREGHHHHHH | not soluble |
| PPIHPLTRAKLPDPYLMPVVSWNQSPQPPTTKEDALAKNPNREPIRCVDYHPFGVIGGRDILYGIVWGTRTA | not soluble |
| APVISQISKDVVASVGDSVEFNCTVEEVGQLSVSWAKRPSESDTNSVVLSMRNILSLPDQRYNVTVTEGPKTGSAIYTFRIQNIEVSDMGPYECQVLVSATEKVTKKLSLQIKTPPVIAENTPKSTLVTEGQNLELTCHANGFPKPTISWAREHNAVMPAGGHLLAEPTLRIRSVHRMDRGGYYCIAQNGEGQPDKRLIRVEVEFRPQIAVQRPKIAQMVSHSAELECSVQGYPAPTVVWHKNGVPLQSSRHHEVANTASSSGTTTSVLRIDSVGEEDFGDYYCNATNKLGHADARLHLFQTVIPVPSLS | soluble |
| MNIRPLHDKLIVERLEVENKSEGGIVLTSQSVKKSNRGKVVAVGLGRPLKNGDRARMEVKTGDQIIFNDGYGVKTEKVDGKEYLILSESDVLAIVE | soluble |
| MGSDKIHHHHHHMKVNTALGILAGKSSQFILKKLGRGTTLPGKIALKFDKHILDSLAKDYEVVVITGTNGKTLTTALTVGILQEAFGEITTNTSGANMITGITATFLSAKKNKKGKKIAVLEIDEASLARVTDFIKPSLIVFTNIFRDQMDRYGEIYTTYQMILDGAAKAPQATILANGDSPLFNSTNVINPVKYYGFATEEHEPRLAHYNTEGVLCPHCHQIIQYKLNTYANLGSYICNNCGFCRPELDYKLTDLKEITNTSSTFAIDGQDYKINIGGLYNIYNALAAVSVAAFFGVTPEKIKAGFDKSKAVFGRQETFKLGDKDCTLVLIKNPVGATQAIEMMKLAPYDFSLSVLLNANYADGIDTSWIWDADFEQITQMDIPQVFAGGVRSSEIARRLRVTGYPENQITETPKLEDIMALIEQSSSQHAYILATYTAMLEFRDLLAQRQAVGKEMK | not soluble |
| EYGYEDLRESSNSLLNHQLSEIDQARLYSCLDHMREVLGDAVPDDILTEAILKHKFDVQKALSVVLEQDG | soluble |
| MPSKTFLLTHTFKDISKLGEGESYYSDIEIRYNIPWSIQVFKNESFLGLLLNCEKEELLEKKKWSLQVKFTMKLVAVSGKFFQRTVKNEFQNPEGHGMDKFISWENMLRDYVNNDSIVIEINADIVSSSGFFKHKYSPCSQSYSGKSFVLKHNFKNRRFVEAERCFSDIEEHYNVPWRLRIQKYKKGFLGIHLLCEKETCDGRSWSIQCDYELQLISSKGKCYSRHSTFNFEKPGGNYQEVEFINWKVMEEEYMDSDSICVEAHVKICKTQELPCNILSTHRKFVLSHTVRNISSINGGNVYFTDIETRFNVPWKLSFVRQSGFIELYLRCEKKQCLSRTWSIEAEFTLKLVSPHGRSLSLRKIYSFEKSIGNGYSKVMRWDEMKDKYVVDNSIIIEAHVKILNMTGIESETTIKKTSGFTIPVGDMEYSMEKWMEMAFDH | not soluble |
| ISNRIKGKTVLVTGAGGSIGSEICRQISAFQPKEIILLGHGENSIHSIYTELNGRFGKHIVFHTEIADVQDRDKMFTLMKKYEPHVVYHAAAHKHVPLMEHNPEE | not soluble |
| MDYNVKDFGALGDGVSDDRASIQAAIDAAYAAGGGTVYLPAGEYRVSAAGEPGDGCLMLKDGVYLAGAGMGETVIKLIDGSDQKITGMVRSAYGEETSNFGMRDLTLDGNRDNTSGKVDGWFNGYIPGGDGADRDVTIERVEVREMSGYGFDPHEQTINLTIRDSVAHDNGLDGFVADYLVDSVFENNVAYANDRHGFNVVTSTHDFVMTNNVAYGNGSSGLVVQRGLEDLALPSNILIDGGAYYDNAREGVLLKMTSDITLQNADIHGNGSSGVRVYGAQDVQILDNQIHDNAQAAAVPEVLLQSFDDTAGASGTYYTTLNTRIEGNTISGSANSTYGIQERNDGTDYSSLIDNDIAGVQQPIQLYGPHSTVSGEP | soluble |
| MGSDKIHHHHHHEDPRGKLTPENFFSTQDELNMSIYALYQKVNLSQVYTNMQLPQWQGDDITTNPGSNKQPAAEMDKFAAANNNKGVKDAWNMHYAIVKAANLIIQGASKTPTTQDEINIALGQAKFWRAYAYFTLVRLWGPLPMNLDNVNDDYTKPLSPVEEVYGHIVQDLTEAEAVLPTGYSGSPRFLNGVNVYVTRQAAKSTLAAVYMAMAGWPMNKTEYYAKAAEKAKEVIEGVNRGEYEYKLDKDYKDVYAMSNNYNNETVLGINYSPFVDWAQDSELTSCNQFESLGGWGDAWGEIRFWKEFPDGPRKDATYDPKIRLKDGTLVDWWELKEDGTPVVPEHHPMFSIFSVNWDPASKVNTSAPYDYTKPASQNMCNDHRHRIIRYSEVLLWYAEAKARTGQTDELAFKCLNDVRERAGLEPLTGLSADDLAEAAYKEHGWEVAGYWVALVTRRADQFRMNRLKDTFKERAENTAVEVADGILVKESVEYTNRTWSDNLMYLPYPDMDSQKNPNLVR | not soluble |
| MSLNVIMAGIDYTLAPIDIREKFSFTKSTLQAVYNDLLKNENIFGAVIVSTCNRTELYLSCEEGLYINPFELLCDAANFDYEEYSNMHVLRTGVDVIRHLCELACGVKSQIWGEDQIITQVRNAIELAREMNASDSTLEVMFRIAVTSAKKVKTTLKLSSTERSIAYSALKIIKSKENISKALVIGNGEIGRLMASILIENGYDTTITLRRYRHGDNIIPLGAKTIEYVARYEKLKDCDVVISATLSPHYTLEIDKIDRIKYPRLFIDLAVPRDIDPKIKSLDNVELYDLDSIYAGEVDKNRTEQMIQVKKIIDKYIFDYYRWYEYRKRLVLTEGHHHHHH | soluble |
| MGSDKIHHHHHHMASAATEGQLADWRTRALKLEDEVKKVIVGQDAAIRLINIAIFARGHVMLEGGVGVGKTTLLQSVARGIGGAYERIEGTVDLMPNDLVYHTFLGPEGRPQIDEGPLLRAGENLSVFFFNEINRARPQVHALMLRVMAERHLHAFKREYRLPHMVVFADRNQVEKNETFEIPSAARDRFMMEIPIHVPEDKALRKSLVFDTRFQHAEQLTHTVESGLLPFNMLNDFSDVVQNHVQSSQALEDYVIDLWDATQKPQDFGITLEGIDMQRLIQAGASPRGMGMLLKAARVHAWLMEREYVYPEDIHAVFHEVIAHRLVFNSMYESRRTVLARELTAKILQTVAVPS | not soluble |
| MDRFEIKEEFLLNGQSFKILSGAIHYFRVDPSDWHHSLYNLKALGFNTVETYVPWNLHEPQKGTFHFEGILDLERFLKLAQELGLYAIVRPSPYICAEWEFGGFPAWLLNEPGRMRSNNPTYLKHVAEYYDVLMEKIVPHQLANGGNILMIQIENEYGSFGEEKAYLRAIRDLMIARGVTAPFFTSDGPWRATLRAGSMIEDDILVTGNFGSKAKENFGMMQAFFEEHGKKWPLMCMEFWDGWFNRWKEPIIKRDPQELAESVREALALGSINLYMFHGGTNFGFMNGCSARGTIDLPQITSYDYDAPLDEQGNPTEKYFALQKMLHEEYPALPQAEPLVKESFAQTAIPLTNKVSLFATLETISQPVVSVYPQTMEQLGQNTGYLLYRTSIEKDAAEEKLRVIDGRDRLQLFVNQVHQATQYQTEIGEDIYVTLPQENNQIDILMENMGRVNYGHKLFADTQKKGIRTGVMADLHFMTQWQQYCLPMTSCEQVDYSREWQPDQPSFYQYHVELAEVKDTFIDVSKFGKGIVFVNQTNLGRFWNVGPTLSLYIPKGLLKEGQNEIVIFETEGTYQPEIQLVKEPLYKEMKEGLQ | not soluble |
| MKVIAFVGKHNVGKTTLIERLIPKLKEKGYRVCYLKHDPKGHGVTDKEGSDTHRISKLVEKLALLSPNRVTYWEWGEFKPLEIVKRFFSDCDIVILEGFKWEEEIPKISVGKVDAKNVILTVDRETPLEDIIKVIESLEDMV | soluble |
| MAHHHHHHMPIKNVQEFLPNVRPDAFPVVVAVQAQASIPVGINLAELSCATRNVEYMPNNRIPSATMRLHEPTAVVMMHNSGALSIIGAASVSEARQAAELAARIIRKALNLNFSSLKFRVRSIAARFNVCSPIRLDKLAAYQLDPAMSIGVAKLQVSYEPERFNGCVLRLVGKSSRGDNQWSVSCSVFVTGKVQLMGARSMDELRFAFNAFVPIIAKNLDERKTA | not soluble |
| MGSDKIHHHHHHENLYFQGMTLSITSNFDAGAIDVVSCERADAIRLRVRGDNRSEFAQWFYFRLTGARGERCVMTFENANDCAYPAGWRDYRAVASYDRVNWFRVPTSYDGQMLTIDHTPEFDSIHYAYFEPYSEERHSEFLGAVQQMPQASVVELGRTVEGRPMSLVVLGTPDEAGAAKKKVWIIARQHPGESMAEWFIEGLVKRLVGWGDWSGDPVARKLYDHATFYIVPNMNPDGSVHGNLRTNAAGANLNREWMEPDAERSPEVLVVRDAIHAIGCDLFFDIHGDEDLPYVFAAGSEMLPGFTEQQRVEQSAFIDSFKRASPDFQDEHGYPPGKYREDAFKLASKYIGHRFGCLSLTLEMPFKDNANLPDEHIGWNGARSASLGAAMLGAILEHVRAFA | soluble |
| MPFRTIARLNPAKPKAGEEFRLQVVAQHPNEPGTRRDAEGKLIPAKYINLVEVYFEGEKVAEARPGPSTSANPLYAFKFKAEKAGTFTIKLKDTDGDTGEASVKLELV | soluble |
